The Vmax is the rate approached at saturating substrate. One may read the kcat as the maximal rate divided by the concentration of active sites. The term kcat/Km denotes the second-order rate constant that governs catalysis at low substrate concentration.

Here are results for two molecules from article PMC7393678, “First Evidence of Acyl-Hydrolase/Lipase Activity From Human Probiotic Bacteria: Lactobacillus rhamnosus GG and Bifidobacterium longum NCC 2705” (Frontiers in Microbiology, 2020).

The test system of series [1] is T1, LrLyp.
T1 construct: C-terminal His6 (pET21b); E. coli; probably monomer
Description: p-nitrophenol release at […] nm, initial rates, substrate inhibition model. Conditions: pH 7, 37°C, 20 mM McIlvaine buffer, substrate 0.1-9 mM from DMSO/Triton X-100 stock; apparent constant from substrate inhibition fit; read-out: KMapp. It counts as biochemical, Lacticaseibacillus rhamnosus.

Series [2] has as its system T1, LrLyp. The series is described as above. It counts as biochemical, Lacticaseibacillus rhamnosus. Conditions: substrate inhibition constant, second site; pH 7, 37°C, 20 mM McIlvaine buffer, substrate 0.1-9 mM.
Substrate in the series “purified protein”: CCCCCCCCCCCC(=O)Oc1ccc([N+](=O)[O-])cc1
Description: purified protein. In kind it is biochemical, Bifidobacterium longum. The settings on record: pH 7, 37°C, 20 mM McIlvaine buffer, substrate 0.1-9 mM from DMSO/Triton X-100 stock, apparent constant.

`CCCCCCCCCCCC(=O)Oc1ccc([N+](=O)[O-])cc1` [pNP-laurate]: in the series with LrLyp [1], the Km was determined as 11.4 mM. In the series with LrLyp [2], the “KIapp” value amounted to 1.57 mM.

B1: BlLyp (Bifidobacterium longum NCC2705) (protein)
chain: PPDNRRVSRLIRHTGKGLSGSFPFCSCRSWAKVGVFALPNPPLKGPVVMPINEALFAAMKAASYIKPNAGKSYKLQRVAEELIAKQAPANPKCRVEDAFAPMADGYAVPLRVFTPLVAYGAPLPEALEESSANGTPVASAISAILPAVLPKVLPKILIKESTSSGNADGISGNANTELPSVTPRGTILFFHGGGWTTGGINLYTQACAHMAVRLQRRVISVEYRLAPEYRFPTAVEDCYEVARQLFAGELPISGVGGSVDVDHPQSAAPTAPAGGGDISATIPAPDPDSIVLFGDSAGGNLAAAVSLMARDRGEFMPRTQMLLYPVVGNDYNPETSPFESVRTNGTDYILTAQDMADYIDMYRSSVADLTNPYFAPLTAHDLSNQPRTLVLSAEYCPLRDEDEAYARRLQLVNDNVSCYRIHDGIHGYLLNTSAVGLVATTYRIIEHFLDGTPLEPAPGTGTTANAPEGGDAWQDVLGTD
notes: C-terminal His6 (pET21b); E. coli; monomer at pH 7
Take B1: in “purified protein”, the Km is listed as 2.56 mM, the Vmax stood at 0.05 µmol/min/mg, the kcat worked out at 0.04 s⁻¹ and the kcat/Km is 16 M⁻¹ s⁻¹.
